Experimental data from FireProtDB (doi:10.1002/pro.398).

Conditions: Gallus gallus, Thermal, CD, whole UniProt chain shown

B1: Ovalbumin wild type, P01012 (protein)
chain: MGSIGAASMEFCFDVFKELKVHHANENIFYCPIAIMSALAMVYLGAKDSTRTQINKVVRFDKLPGFGDSIEAQCGTSVNVHSSLRDILNQITKPNDVYSFSLASRLYAEERYPILPEYLQCVKELYRGGLEPINFQTAADQARELINSWVESQTNGIIRNVLQPSSVDSQTAMVLVNAIVFKGLWEKAFKDEDTQAMPFRVTEQESKPVQMMYQIGLFRVASMASEKMKILELPFASGTMSMLVLLPDEVSGLEQLESIINFEKLTEWTSSNVMEERKIKVYLPRMKMEEKYNLTSVLMAMGITDVFSSSANLSGISSAESLKISQAVHAAHAEINEAGREVVGSAEAGVDAASVSEEFRADHPFLFCIKHIATNAVLFFGRCVSP
Tm (pH 7, Phosphate 10 mM): 69.8 °C
Tm (pH 10, Glycine-NaOH 0.1 M): 78.9 °C
